Measurements as given in patent US20130045305A1.
Each block holds one molecule with its values, some of them ahead of it.

Experiments:
glutathione [1] = molecular target: glutathione
Val-Gly [2] = molecular target: Val-Gly
glutathione [3] = molecular target: glutathione; remark: listed apart in the source
Val-Gly [4] = molecular target: Val-Gly; remark: listed apart in the source

Molecule: Glutaminase Daiwa SD-C100S, Daiwa kasei (enzyme)
GSH (ppm) in the reaction mixture after reaction with glutaminase, no Val-Gly added (glutathione [1]): 3.1 ppm | γ-Glu-Val-Gly (ppm) in the reaction mixture after reaction with glutaminase, 4000 ppm Val-Gly added (Val-Gly [2]): 16 ppm

Molecule: γ-Glutamyltranspeptidase from equine kidney, Sigma, Code G9270-100UN (enzyme)
GSH (ppm) in the reaction mixture after reaction with γ-GTP, no Val-Gly added (glutathione [3]): 432 ppm | γ-Glu-Val-Gly (ppm) in the reaction mixture after reaction with γ-GTP, 4000 ppm Val-Gly added (Val-Gly [4]): 340 ppm

Next, values leading:

γ-EVG, µg 1^-1 OD600^-1, formed in cells cultured with 100 ppm γ-Glu-Val, strain S288C ura3Δ227/YEp24-PTDH3-GSH2 (µg 1^-1 OD600^-1) (γ-Glu-Val): 705
Molecule: Gsh2p (glutathione synthetase) of Saccharomyces cerevisiae (enzyme)

intracellular content of γ-Glu-nVal-Gly on the dry weight cell, 100 ppm added (γ-Glu-nVal-Gly): 2.84%
B1: Hgt1p of Saccharomyces cerevisiae (protein)
chain: MSTIYRESDSLESEPSPTPTTIPIQINMEEEKKDAFVKNIDEDVNNLTATTDEEDRDPESQKFDRHSIQEEGLVWKGDPTYLPNSPYPEVRSAVSIEDDPTIRLNHWRTWFLTTVFVVVFAGVNQFFSLRYPSLEINFLVAQVVCYPIGRILALLPDWKCSKVPFFDLNPGPFTKKEHAVVTIAVALTSSTAYAMYILNAQGSFYNMKLNVGYQFLLVWTSQMIGYGAAGLTRRWVVNPASSIWPQTLISVSLFDSLHSRKVEKTVANGWTMPRYRFFLIVLIGSFIWYWVPGFLFTGLSYFNVILWGSKTRHNFIANTIFGTQSGLGALPITFDYTQVSQAMSGSVFATPFYVSANTYASVLIFFVIVLPCLYFTNTWYAKYMPVISGSTYDNTQNKYNVTKILNEDYSINLEKYKEYSPVFVPFSYLLSYALNFAAVIAVFVHCILYHGKDIVAKFKDRKNGGTDIHMRIYSKNYKDCPDWWYLLLQIVMIGLGFVAVCCFDTKFPAWAFVIAILISLVNFIPQGILEAMTNQHVGLNIITELICGYMLPLRPMANLLFKLYGFIVMRQGLNLSRDLKLAMYMKVSPRLIFAVQIYATIISGMVNVGVQEWMMHNIDGLCTTDQPNGFTCANGRTVFNASIIWSLPKYLFSSGRIYNPLMWFFLIGLLFPLAVYAVQWKFPKFKFAKHIHTPVFFTGPGNIPPSTPYNYSLFFAMSFCLNLIRKRWRAWFNKYNFVMGAGVEAGVAISVVIIFLCVQYPGGKLSWWGNNVWKRTYDNDYKKFYTLKKGETFGYDKWW
